Results on 1 molecule are retold here after US5352595, “Myod regulatory region” (Fred Hutchinson Cancer Research Center).

The target of the series is MyoD:E12 heterodimer (UniProt P10085;P15806 P10085:1-318,P15806:1-651). Kind of series: EMSA. (A gel shift assay detects complexes by their altered migration in electrophoresis.)
MyoD:E12 heterodimer, sequence (P10085 whole entry, chain 1 of 2): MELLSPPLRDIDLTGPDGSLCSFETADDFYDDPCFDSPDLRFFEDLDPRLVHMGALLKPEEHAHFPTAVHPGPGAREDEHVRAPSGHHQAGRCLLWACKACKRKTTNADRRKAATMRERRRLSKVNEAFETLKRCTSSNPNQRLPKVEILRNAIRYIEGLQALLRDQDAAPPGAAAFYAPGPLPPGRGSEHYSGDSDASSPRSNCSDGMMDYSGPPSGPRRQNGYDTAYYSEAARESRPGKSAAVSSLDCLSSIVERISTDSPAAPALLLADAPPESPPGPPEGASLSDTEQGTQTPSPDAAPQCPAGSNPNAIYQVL
MyoD:E12 heterodimer, sequence (P15806 whole entry, chain 2 of 2): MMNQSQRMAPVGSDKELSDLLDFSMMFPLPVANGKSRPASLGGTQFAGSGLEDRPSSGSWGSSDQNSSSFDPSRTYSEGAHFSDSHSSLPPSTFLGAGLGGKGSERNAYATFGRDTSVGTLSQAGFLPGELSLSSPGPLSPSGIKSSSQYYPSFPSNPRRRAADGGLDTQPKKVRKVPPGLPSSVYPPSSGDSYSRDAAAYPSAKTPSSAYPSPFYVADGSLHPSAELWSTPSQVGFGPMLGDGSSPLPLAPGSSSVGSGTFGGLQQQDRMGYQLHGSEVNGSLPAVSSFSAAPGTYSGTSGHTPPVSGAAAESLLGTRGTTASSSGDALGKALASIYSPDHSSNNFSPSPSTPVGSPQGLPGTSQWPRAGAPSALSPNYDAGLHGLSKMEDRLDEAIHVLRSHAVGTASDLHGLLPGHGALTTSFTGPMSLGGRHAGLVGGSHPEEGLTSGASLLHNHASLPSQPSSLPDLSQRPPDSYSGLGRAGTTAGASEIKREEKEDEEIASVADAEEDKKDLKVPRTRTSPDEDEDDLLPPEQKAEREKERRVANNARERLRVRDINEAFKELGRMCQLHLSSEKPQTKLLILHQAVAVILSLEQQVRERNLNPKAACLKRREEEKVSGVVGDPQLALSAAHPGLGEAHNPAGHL

B1: myoD PRR A site (-190) (dsDNA)
DNA 1: GGCAGCTGCC
DNA 2: GGCAGCTGCC
Take B1: the binding result is recorded as “binds”.
